Target: F-actin (rabbit skeletal muscle actin filaments) (rabbit) (UniProt P68135)
Experiment: co-sedimentation

| initial Kd (bivalent cooperativity model) [µM] | Kd [nM] | Substance |
| --- | --- | --- |
| 168 | – | 29-kD NH2-terminal fragment of synapsin I (domain or fragment) |
| – | 1300 | 40-kD NH2-terminal/middle fragment of synapsin I (domain or fragment) |
| – | 1700 | phosphorylated 51/54-kD middle/tail fragment of synapsin I (domain or fragment) |
| – | 600 | dephosphorylated 51/54-kD middle/tail fragment of synapsin I (domain or fragment) |

— PMC2115537
